Details: Aspergillus oryzae (strain ATCC 42149 / RIB 40); pH 4.7; 38 °C; GdnHCl; DSC; glycine 0.04 M; reversible: yes(>90%); whole UniProt chain shown

B1: Guanyl-specific ribonuclease T1 wild type, P00651 (protein)
chain: MMYSKLLTLTTLLLPTALALPSLVERACDYTCGSNCYSSSDVSTAQAAGYQLHEDGETVGSNSYPHKYNNYEGFDFSVSSPYYEWPILSSGDVYSGGSPGADRVVFNENNQLAGVITHTGASGNNFVECT
For B1, the unfolding free energy was 6.6 kcal/mol.
